The text below walks through data of patent US20040086519A1.

This experiment addresses P-selectin (pig). Nature of the experiment: cell-based or functional assay.

The substance “soluble P-selectin glycoprotein ligand-1 (PSGL-1) chimera (rPSGL-Ig) (from UniProt Q14242 42-305) (Fc fusion)” returned a decrease in adhesion of 51Cr-platelets to deeply injured arterial segments 1 week following repeat angioplasty (pigs, in vivo) of 85%; a decrease in adhesion of 111In-neutrophils to deeply injured arterial segments 1 week following repeat angioplasty (pigs, in vivo) of 75%; a decrease in neutrophil adhesion at stented coronary sites 4 weeks after stenting (pigs, in vivo) of 49%; a decrease in platelet adhesion at stented coronary sites 4 weeks after stenting (pigs, in vivo) of 39%.
